Patent US20130005646A1 (Novo Nordisk, published 2013)
Starred links: 1 amine or outer side, 2 acyl side, 3 side chain; linkers in the order of their positions; H or OH if unused. Positions of bridges follow the written chain, without caps; N, C: chain ends. Groups on a side chain read outwards from the residue. No end group written: not given here. *: point of attachment. X1 = (S)‑4‑Carboxy‑4‑(19-carboxynonadecanoylamino)butyryl, O=C(O)CCCCCCCCCCCCCCCCCCC(=O)N[C@@H](CCC(=O)*)C(=O)O; C20 diacid = O=C(O)CCCCCCCCCCCCCCCCCCC(=O)*; 19‑carboxyheptadecanoyl = not defined here; γGlu = O=C(O)[C@H](CCC(=O)[*:2])N[*:1]; AEEA = NCCOCCOCC(=O)O

T1: human calcitonin (a) receptor (human, UniProt P30988 25-474)
T1 sequence (looked up): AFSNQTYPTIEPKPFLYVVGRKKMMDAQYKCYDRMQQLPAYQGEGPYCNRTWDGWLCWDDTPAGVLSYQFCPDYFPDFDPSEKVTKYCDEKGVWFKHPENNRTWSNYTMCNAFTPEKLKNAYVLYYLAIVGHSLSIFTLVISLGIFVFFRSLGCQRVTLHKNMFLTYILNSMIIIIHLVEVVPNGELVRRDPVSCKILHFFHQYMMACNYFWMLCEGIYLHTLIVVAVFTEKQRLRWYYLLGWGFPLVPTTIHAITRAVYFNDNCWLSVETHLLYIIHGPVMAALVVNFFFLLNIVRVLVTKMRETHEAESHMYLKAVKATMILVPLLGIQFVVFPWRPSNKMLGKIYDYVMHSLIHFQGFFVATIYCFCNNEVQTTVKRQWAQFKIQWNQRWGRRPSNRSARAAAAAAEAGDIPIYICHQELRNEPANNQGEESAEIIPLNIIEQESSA

T2: human amylin 3(a) receptor (human calcitonin receptor + RAMP-3) (human, UniProt P30988 25-474; O60896 24-148)
T2 sequence (looked up) 1: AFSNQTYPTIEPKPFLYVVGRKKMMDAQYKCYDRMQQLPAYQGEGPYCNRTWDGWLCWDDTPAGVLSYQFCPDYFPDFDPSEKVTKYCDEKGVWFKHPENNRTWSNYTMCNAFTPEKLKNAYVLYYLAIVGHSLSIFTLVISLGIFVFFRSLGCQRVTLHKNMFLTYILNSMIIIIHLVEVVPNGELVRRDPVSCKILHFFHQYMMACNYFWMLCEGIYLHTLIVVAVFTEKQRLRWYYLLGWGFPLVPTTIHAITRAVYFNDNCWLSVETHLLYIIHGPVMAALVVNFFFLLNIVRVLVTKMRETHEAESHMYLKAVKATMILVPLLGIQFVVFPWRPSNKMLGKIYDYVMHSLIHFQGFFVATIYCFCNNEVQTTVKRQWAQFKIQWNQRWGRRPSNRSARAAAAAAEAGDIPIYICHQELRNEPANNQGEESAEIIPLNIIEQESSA
T2 sequence (looked up) 2: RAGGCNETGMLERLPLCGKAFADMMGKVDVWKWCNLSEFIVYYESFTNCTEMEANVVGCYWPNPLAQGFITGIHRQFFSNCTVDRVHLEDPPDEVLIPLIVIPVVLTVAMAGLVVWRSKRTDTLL


Tests used:
[1] = target: T1, human calcitonin (a) receptor; assay: cell-based or functional assay
[2] = target: T2, human amylin 3(a) receptor (human …); assay: cell-based or functional assay

Row | CTa receptor human EC50 [1] [nM] | Amylin receptor human EC50 [2] [nM] | Binder
1 | 0.125 | 0.083 | X1-HCNTATCATQRLAEFLVRSSNNFGPILPPTNVGSNTY-NH2 (disulfide 2-7; SMILES CC[C@H](C)[C@H](NC(=O)[C@@H]1CCCN1C(=O)CNC(=O)[C@H](Cc1ccccc1)NC(=O)[C@H](CC(N)=O)NC(=O)[C@H](CC(N)=O)NC(=O)[C@H](CO)NC(=O)[C@H](CO)NC(=O)[C@H](CCCNC(=N)N)NC(=O)[C@@H](NC(=O)[C@H](CC(C)C)NC(=O)[C@H](Cc1ccccc1)NC(=O)[C@H](CCC(=O)O)NC(=O)[C@H](C)NC(=O)[C@H](CC(C)C)NC(=O)[C@H](CCCNC(=N)N)NC(=O)[C@H](CCC(N)=O)NC(=O)[C@@H](NC(=O)[C@H](C)NC(=O)[C@@H]1CSSC[C@H](NC(=O)[C@H](Cc2c[nH]cn2)NC(=O)CC[C@H](NC(=O)CCCCCCCCCCCCCCCCCCC(=O)O)C(=O)O)C(=O)N[C@@H](CC(N)=O)C(=O)N[C@@H]([C@@H](C)O)C(=O)N[C@@H](C)C(=O)N[C@@H]([C@@H](C)O)C(=O)N1)[C@@H](C)O)C(C)C)C(=O)N[C@@H](CC(C)C)C(=O)N1CCC[C@H]1C(=O)N1CCC[C@H]1C(=O)N[C@H](C(=O)N[C@@H](CC(N)=O)C(=O)N[C@H](C(=O)NCC(=O)N[C@@H](CO)C(=O)N[C@@H](CC(N)=O)C(=O)N[C@H](C(=O)N[C@@H](Cc1ccc(O)cc1)C(N)=O)[C@@H](C)O)C(C)C)[C@@H](C)O) [N-alpha-[(S)-4-Carboxy-4-(19-carboxynonadecanoylamino)butyryl]-[His1,Glu14,Arg18]-pramlintide]
2 | 0.184 | 0.119 | {C20 diacid-γGlu}-ERCNTATCATQRLAEFLHHSSNNFGPILPPTNVGSNTY-NH2 (disulfide 3-8; SMILES CC[C@H](C)[C@H](NC(=O)[C@@H]1CCCN1C(=O)CNC(=O)[C@H](Cc1ccccc1)NC(=O)[C@H](CC(N)=O)NC(=O)[C@H](CC(N)=O)NC(=O)[C@H](CO)NC(=O)[C@H](CO)NC(=O)[C@H](Cc1c[nH]cn1)NC(=O)[C@H](Cc1c[nH]cn1)NC(=O)[C@H](CC(C)C)NC(=O)[C@H](Cc1ccccc1)NC(=O)[C@H](CCC(=O)O)NC(=O)[C@H](C)NC(=O)[C@H](CC(C)C)NC(=O)[C@H](CCCNC(=N)N)NC(=O)[C@H](CCC(N)=O)NC(=O)[C@@H](NC(=O)[C@H](C)NC(=O)[C@@H]1CSSC[C@H](NC(=O)[C@H](CCCNC(=N)N)NC(=O)[C@H](CCC(=O)O)NC(=O)CC[C@H](NC(=O)CCCCCCCCCCCCCCCCCCC(=O)O)C(=O)O)C(=O)N[C@@H](CC(N)=O)C(=O)N[C@@H]([C@@H](C)O)C(=O)N[C@@H](C)C(=O)N[C@@H]([C@@H](C)O)C(=O)N1)[C@@H](C)O)C(=O)N[C@@H](CC(C)C)C(=O)N1CCC[C@H]1C(=O)N1CCC[C@H]1C(=O)N[C@H](C(=O)N[C@@H](CC(N)=O)C(=O)N[C@H](C(=O)NCC(=O)N[C@@H](CO)C(=O)N[C@@H](CC(N)=O)C(=O)N[C@H](C(=O)N[C@@H](Cc1ccc(O)cc1)C(N)=O)[C@@H](C)O)C(C)C)[C@@H](C)O) [N-alpha-[(S)-4-Carboxy-4-(19-carboxynonadecanoylamino)butyryl]-Glu-[Arg1,Glu14,His17]-pramlintide]
3 | 0.74 | 0.151 | {C20 diacid-γGlu}-HHHCNTATCATQRLAEFLVHSSNNFGPILPPTNVGSNTY-NH2 (disulfide 4-9; SMILES CC[C@H](C)[C@H](NC(=O)[C@@H]1CCCN1C(=O)CNC(=O)[C@H](Cc1ccccc1)NC(=O)[C@H](CC(N)=O)NC(=O)[C@H](CC(N)=O)NC(=O)[C@H](CO)NC(=O)[C@H](CO)NC(=O)[C@H](Cc1c[nH]cn1)NC(=O)[C@@H](NC(=O)[C@H](CC(C)C)NC(=O)[C@H](Cc1ccccc1)NC(=O)[C@H](CCC(=O)O)NC(=O)[C@H](C)NC(=O)[C@H](CC(C)C)NC(=O)[C@H](CCCNC(=N)N)NC(=O)[C@H](CCC(N)=O)NC(=O)[C@@H](NC(=O)[C@H](C)NC(=O)[C@@H]1CSSC[C@H](NC(=O)[C@H](Cc2c[nH]cn2)NC(=O)[C@H](Cc2c[nH]cn2)NC(=O)[C@H](Cc2c[nH]cn2)NC(=O)CC[C@H](NC(=O)CCCCCCCCCCCCCCCCCCC(=O)O)C(=O)O)C(=O)N[C@@H](CC(N)=O)C(=O)N[C@@H]([C@@H](C)O)C(=O)N[C@@H](C)C(=O)N[C@@H]([C@@H](C)O)C(=O)N1)[C@@H](C)O)C(C)C)C(=O)N[C@@H](CC(C)C)C(=O)N1CCC[C@H]1C(=O)N1CCC[C@H]1C(=O)N[C@H](C(=O)N[C@@H](CC(N)=O)C(=O)N[C@H](C(=O)NCC(=O)N[C@@H](CO)C(=O)N[C@@H](CC(N)=O)C(=O)N[C@H](C(=O)N[C@@H](Cc1ccc(O)cc1)C(N)=O)[C@@H](C)O)C(C)C)[C@@H](C)O) [N-alpha-[(S)-4-Carboxy-4-(19-carboxynonadecanoylamino)butyryl]-His-His-[His1,Glu14]-pramlintide]
4 | 0.492 | 0.385 | {19‑carboxyheptadecanoyl-γGlu-AEEA-AEEA}-HCNTATCATQRLAEFLHRATQELGPILPPTNVGSNTY-NH2 (disulfide 2-7; reading uncertain; also: printed as N-alpha-[2-(2-{2-[2-(2-{2-[(S)-4-Carboxy-4-(19-carboxyheptadecanoylamino)butyrylamino]ethoxy}ethoxy)acetylamino]ethoxy}ethoxy)acetyl]-[His1,Glu14,His17,Arg18,Ala19,Thr20,Gln21,Glu22,Leu23]-pramlintide)
5 | 0.279 | 0.127 | X1-HCNTATCATQRLAEFLHRSSNEFGARLSSTNVGSNTY-NH2 (disulfide 2-7; SMILES CC(C)C[C@H](NC(=O)[C@H](CCCNC(=N)N)NC(=O)[C@H](CCC(N)=O)NC(=O)[C@@H](NC(=O)[C@H](C)NC(=O)[C@@H]1CSSC[C@H](NC(=O)[C@H](Cc2c[nH]cn2)NC(=O)CC[C@H](NC(=O)CCCCCCCCCCCCCCCCCCC(=O)O)C(=O)O)C(=O)N[C@@H](CC(N)=O)C(=O)N[C@@H]([C@@H](C)O)C(=O)N[C@@H](C)C(=O)N[C@@H]([C@@H](C)O)C(=O)N1)[C@@H](C)O)C(=O)N[C@@H](C)C(=O)N[C@@H](CCC(=O)O)C(=O)N[C@@H](Cc1ccccc1)C(=O)N[C@@H](CC(C)C)C(=O)N[C@@H](Cc1c[nH]cn1)C(=O)N[C@@H](CCCNC(=N)N)C(=O)N[C@@H](CO)C(=O)N[C@@H](CO)C(=O)N[C@@H](CC(N)=O)C(=O)N[C@@H](CCC(=O)O)C(=O)N[C@@H](Cc1ccccc1)C(=O)NCC(=O)N[C@@H](C)C(=O)N[C@@H](CCCNC(=N)N)C(=O)N[C@@H](CC(C)C)C(=O)N[C@@H](CO)C(=O)N[C@@H](CO)C(=O)N[C@H](C(=O)N[C@@H](CC(N)=O)C(=O)N[C@H](C(=O)NCC(=O)N[C@@H](CO)C(=O)N[C@@H](CC(N)=O)C(=O)N[C@H](C(=O)N[C@@H](Cc1ccc(O)cc1)C(N)=O)[C@@H](C)O)C(C)C)[C@@H](C)O)
6 | 0.469 | 0.0994 | RCNTATCATQRLAEFLHRSSK([AEEA-AEEA-γGlu-19‑carboxyheptadecanoyl])NFGPILPPTNVGSNTY-NH2 (disulfide 2-7)
7 | 0.198 | 0.313 | {C20 diacid-γGlu}-HCGTATCATQRLAEFLHRSSSSFGPILPPTEVGSETY-NH2 (disulfide 2-7; SMILES CC[C@H](C)[C@H](NC(=O)[C@@H]1CCCN1C(=O)CNC(=O)[C@H](Cc1ccccc1)NC(=O)[C@H](CO)NC(=O)[C@H](CO)NC(=O)[C@H](CO)NC(=O)[C@H](CO)NC(=O)[C@H](CCCNC(=N)N)NC(=O)[C@H](Cc1c[nH]cn1)NC(=O)[C@H](CC(C)C)NC(=O)[C@H](Cc1ccccc1)NC(=O)[C@H](CCC(=O)O)NC(=O)[C@H](C)NC(=O)[C@H](CC(C)C)NC(=O)[C@H](CCCNC(=N)N)NC(=O)[C@H](CCC(N)=O)NC(=O)[C@@H](NC(=O)[C@H](C)NC(=O)[C@@H]1CSSC[C@H](NC(=O)[C@H](Cc2c[nH]cn2)NC(=O)CC[C@H](NC(=O)CCCCCCCCCCCCCCCCCCC(=O)O)C(=O)O)C(=O)NCC(=O)N[C@@H]([C@@H](C)O)C(=O)N[C@@H](C)C(=O)N[C@@H]([C@@H](C)O)C(=O)N1)[C@@H](C)O)C(=O)N[C@@H](CC(C)C)C(=O)N1CCC[C@H]1C(=O)N1CCC[C@H]1C(=O)N[C@H](C(=O)N[C@@H](CCC(=O)O)C(=O)N[C@H](C(=O)NCC(=O)N[C@@H](CO)C(=O)N[C@@H](CCC(=O)O)C(=O)N[C@H](C(=O)N[C@@H](Cc1ccc(O)cc1)C(N)=O)[C@@H](C)O)C(C)C)[C@@H](C)O)
